Test results: patent EP4596582A1

Legend:
[1] = target: human B7-H3-4Ig-His protein (human) (UniProt Q5ZPR3); test: ELISA, antigen coated at 1 ug/ml (specificity panel)
[2] = target: human B7-H3 on human tumor cells (MCF-7, HT29, NCI-N87, HCC1806, HCC827) (human) (UniProt Q5ZPR3); test: cell-based or functional assay
[3] = target: human B7-H3-4Ig on CHO-S cells (CHO-S-human B7-H3-4Ig) (human) (UniProt Q5ZPR3); test: cell-based or functional assay
[4] = target: human B7-H3-4Ig-His protein (human) (UniProt Q5ZPR3); test: ELISA, antigen coated at 1 ug/ml
[5] = target: monkey B7-H3-4Ig-His protein (monkey); test: ELISA, antigen coated at 1 ug/ml
[6] = target: human B7-H3-4Ig-His protein (human) (UniProt Q5ZPR3); test: ELISA, antigen coated at 1 ug/ml; remark: listed apart in the source

human B7-H3-4Ig-His protein (human), sequence (Q5ZPR3 other isoform, or with tags, fused parts or gaps): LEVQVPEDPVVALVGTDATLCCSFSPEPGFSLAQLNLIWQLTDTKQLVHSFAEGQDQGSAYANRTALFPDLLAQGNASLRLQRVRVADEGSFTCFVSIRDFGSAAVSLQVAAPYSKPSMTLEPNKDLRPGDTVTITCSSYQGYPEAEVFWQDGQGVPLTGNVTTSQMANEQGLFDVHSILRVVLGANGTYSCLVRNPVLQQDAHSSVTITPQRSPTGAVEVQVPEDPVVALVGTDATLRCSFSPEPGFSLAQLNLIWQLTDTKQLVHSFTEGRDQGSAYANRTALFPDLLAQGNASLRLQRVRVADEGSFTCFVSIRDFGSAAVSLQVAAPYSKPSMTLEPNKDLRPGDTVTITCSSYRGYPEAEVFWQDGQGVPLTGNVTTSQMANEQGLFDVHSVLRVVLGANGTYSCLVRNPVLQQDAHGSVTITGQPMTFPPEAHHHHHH
human B7-H3 on human tumor cells (MCF-7, HT29, NCI-N87, HCC1806, HCC827) (human), sequence (Q5ZPR3 29-534): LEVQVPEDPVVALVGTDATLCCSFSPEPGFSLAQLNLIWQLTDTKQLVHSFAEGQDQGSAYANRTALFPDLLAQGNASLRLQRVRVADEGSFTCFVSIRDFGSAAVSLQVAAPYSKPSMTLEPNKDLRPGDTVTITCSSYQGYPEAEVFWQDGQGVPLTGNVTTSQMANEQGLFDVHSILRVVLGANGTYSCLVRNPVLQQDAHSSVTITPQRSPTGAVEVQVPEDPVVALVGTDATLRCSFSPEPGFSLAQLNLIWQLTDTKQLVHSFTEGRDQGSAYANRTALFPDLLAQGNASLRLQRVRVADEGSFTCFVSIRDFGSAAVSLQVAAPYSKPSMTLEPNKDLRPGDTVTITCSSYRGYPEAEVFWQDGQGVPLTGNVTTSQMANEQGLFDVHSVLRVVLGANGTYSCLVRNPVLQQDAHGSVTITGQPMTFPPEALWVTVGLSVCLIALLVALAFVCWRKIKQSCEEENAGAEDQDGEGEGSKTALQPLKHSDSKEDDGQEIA
human B7-H3-4Ig on CHO-S cells (CHO-S-human B7-H3-4Ig) (human), sequence (Q5ZPR3 29-534): as above

- EC50 [1]: 0.00336 µg/mL
- Endocytosis EC50 on HCC827 cells (PHrodo, flow cytometry) [2]: 0.0152 µg/mL
- Endocytosis EC50 on HCC1806 cells (PHrodo, flow cytometry) [2]: 0.0572 µg/mL
- Endocytosis EC50 on NCI-N87 cells (PHrodo, flow cytometry) [2]: 0.0241 µg/mL
- ADCC: EC50 of luciferase signal of Jurkat-NFAT/Luciferase-CD16A effector cells with CHO-S-human B7-H3-4Ig target cells [3]: 0.108 µg/mL
- EC50 [4]: 0.00336 µg/mL
- EC50 [5]: 0.0237 µg/mL
- EC50 [6]: 0.0138 µg/mL
B1: control B7-H3 antibody DS7300 (antibody, INN chains, looked up, V domains shown)
VH: QVQLVQSGAEVKKPGSSVKVSCKASGYTFTNYVMHWVRQAPGQGLEWMGYINPYNDDVKYNEKFKGRVTITADESTSTAYMELSSLRSEDTAVYYCARWGYYGSPLYYFDYWGQGTLVTVSS
VL: EIVLTQSPATLSLSPGERATLSCRASSRLIYMHWYQQKPGQAPRPLIYATSNLASGIPARFSGSGSGTDFTLTISSLEPEDFAVYYCQQWNSNPPTFGQGTKVEIK
